# Assay results reported in US8492147B2, “Method of inducing the differentiation of embryonic stem cells into nerve by serum-free suspension culture” (Riken, priority 2004, dated 2013).
# B1: Lefty-A: anti-Nodal reagent (Nodal signal inhibitor), manufactured by R&D Company (protein, UniProt O00292 77-366, looked up)
# Left-right determination …: RFSQSFREVAGRFLASEASTHLLVFGMEQRLPPNSELVQAVLRLFQEPVPKAALHRHGRLSPRSAQARVTVEWLRVRDDGSNRTSLIDSRLVSVHESGWKAFDVTEAVNFWQQLSRPRQPLLLQVSVQREHLGPLASGAHKLVRFASQGAPAGLGEPQLELHTLDLRDYGAQGDCDPEAPMTEGTRCCRQEMYIDLQGMKWAKNWVLEPPGFLAYECVGTCQQPPEALAFNWPFLGPRQCIASETASLPMIVSIKEGGRTRPQVVSLPNMRVQKCSCASDGALVPRRLQP
# B2: Dkk1: anti-Wnt reagent (Wnt signal inhibitor), manufactured by R&D Company (protein, UniProt O94907 32-266, looked up)
# Dickkopf-related protein 1: TLNSVLNSNAIKNLPPPLGGAAGHPGSAVSAAPGILYPGGNKYQTIDNYQPYPCAEDEECGTDEYCASPTRGGDAGVQICLACRKRRKRCMRHAMCCPGNYCKNGICVSSDQNHFRGEIEETITESFGNDHSTLDGYSRRTTLSSKMYHTKGQEGSVCLRSSDCASGLCCARHFWSKICKPVLKEGQVCTKHRRKGSHGLEIFQRCYCGEGLSCRIQKDHHQASNSSRLHTCQRH
# B3: Wnt3a: Wnt3a protein (manufactured by R&D), Wnt signal promoter (protein, UniProt P56704 19-352, looked up)
# Protein Wnt-3a: SYPIWWSLAVGPQYSSLGSQPILCASIPGLVPKQLRFCRNYVEIMPSVAEGIKIGIQECQHQFRGRRWNCTTVHDSLAIFGPVLDKATRESAFVHAIASAGVAFAVTRSCAEGTAAICGCSSRHQGSPGKGWKWGGCSEDIEFGGMVSREFADARENRPDARSAMNRHNNEAGRQAIASHMHLKCKCHGLSGSCEVKTCWWSQPDFRAIGDFLKDKYDSASEMVVEKHRESRGWVETLRPRYTYFKVPTERDLVYYEASPNFCEPNPETGSFGTRDRTCNVSSHGIDGCDLLCCGRGHNARAERRREKCRCVFHWCCYVSCQECTRVYDVHTCK
# B4: activin: TGFβ family protein, Nodal signal promoter, manufactured by R&D (protein, UniProt P08476 311-426, looked up)
# Inhibin beta A chain: GLECDGKVNICCKKQFFVSFKDIGWNDWIIAPSGYHANYCEGECPSHIAGTSGSSLSFHSTVINHYRMRGHSPFANLKSCCVPTKLRPMSMLYYDDGQNIIKKDIQNMIVEECGCS
# modifications: Inhibin beta A chain activin A assumed
# notes: TGFβ family protein, Nodal signal promoter, manufactured by R&D
# B5: Nodal protein: Nodal protein (manufactured by R&D), Nodal signal promoter (protein, UniProt Q96S42 238-347, looked up)
# Nodal homolog: HHLPDRSQLCRKVKFQVDFNLIGWGSWIIYPKQYNAYRCEGECPNPVGEEFHPTNHAYIQSLLKRYQPHRVPSTCCAPVKTKPLSMLYVDNGRVLLDHHKDMIVEECGCL
# Legend:
# [1] = tested on: Mouse ES cells (EB5 cells); assay: SFEB culture with retinoic acid, Bf1+ cells and RT-PCR of rostral/caudal markers; assay type: cell-based; details: RA 0.2 μM after 3-5 days of the culture
# Method: Specifically, As ES cells, those cultured for maintenance by conventional culture method without feeder cells supplemented with 1% fetal calf serum, 10% KSR (Knockout Serum Replacement), and LIF were used for SFEB method (see, Neuron, Vol. 28: 31-40 (2000)). Next, after ES cell colonies were subjected to trypsin/EDTA treatment to make single cells, 10 ml of the cells (6×10^4 cells/ml) were seeded on cell non-adhesive culture plastic plate (diameter: 10 cm), and incubated at 37° C., 5% CO2 for five days. As medium, differentiation medium composed of 500 ml of GMEM, 5 ml of 100×NEAA, 5 ml of 100×pyruvate, and 0.5 ml of 1×10^−1 M 2-mercaptoethanol, and 5% KSR (Knockout Serum Replacement). […]
# Mouse ES cells (EB5 cells) were subjected to serum-free floating culture by the SFEB method in the same manner as Example 1 for 5 days, after which they were dispersed by trypsin/EDTA treatment, seeded to a cell culture slide coated with poly-D lysine/laminin, and cultured in a differentiation medium (as described above) for 2 days, and then in a GMEM+N2 medium (composition: GMEM+1×N-2 Supplement (manufactured by Gibco, a supply of ×100 concentration was used after dilution), 0.1 mM non-essential amino acid, 1 mM sodium pyruvate, 0.1 mM 2-mercaptoethanol) for 3 days. The finally obtained differentiated cells were analyzed by the fluorescent antibody method using anti-Bf1 antibody. […]
# ES cells [2] = assay: SDIA method on PA6 cells with BMP4, Math1 and cerebellar granule cell markers; assay type: cell-based
# Source text: Although there have been no reports on differentiation induction of ES cells into cerebellar tissue, the present inventors have already reported that Math1 is induced by treating neurons differentiated by the SDIA method with BMP4 (see Proc. Natl. Acad. Sci. USA, 100, 5828-5833). […] Therefore, the Math1-positive cells induced by the SDIA method were postulated not to be cerebellar granule cells, but to be Math1-positive cells of the pons, medulla oblongata, spinal cord and the like.
# ES cells [3] = assay: BMP treatment of ES cells cultured by SFEB method; assay type: cell-based
# Source text: (§1) It is interesting to elucidate what kinds of signaling regulate this difference by analyzing RNA profile for them.
# ES cells [4] = assay: BMP treatment of ES cells cultured on collagen-coated dish; assay type: cell-based; details: BMP treatment (5 nM)
# Source text: as §1
# Sox1/GFP-mES cells = assay: SFEB serum-free floating culture of Sox1/GFP-mES cells, frequency of Sox1-GFP+ cells (FACS); assay type: cell-based, mouse; details: for experiment-to-experiment variation of GFP expression value: initial cell density 5×10^4 cell/ml, without addition varied by about 10-15%
# Method: Specifically, As ES cells, those cultured for maintenance by conventional culture method without feeder cells supplemented with 1% fetal calf serum, 10% KSR (Knockout Serum Replacement), and LIF were used for SFEB method (see, Neuron, Vol. 28: 31-40 (2000)). Next, after ES cell colonies were subjected to trypsin/EDTA treatment to make single cells, 10 ml of the cells (6×10^4 cells/ml) were seeded on cell non-adhesive culture plastic plate (diameter: 10 cm), and incubated at 37° C., 5% CO2 for five days. As medium, differentiation medium composed of 500 ml of GMEM, 5 ml of 100×NEAA, 5 ml of 100×pyruvate, and 0.5 ml of 1×10^−1 M 2-mercaptoethanol, and 5% KSR (Knockout Serum Replacement).
# Next, For quantitative analysis, mouse ES cells wherein GFP (green fluorescent protein) was knocked in the nerve marker Sox1 gene by homologous recombination (hereinafter abbreviated as Sox1/GFP-mES cells as required; see Nature Biotechnology Vol. 21: 183-186 (2003)) were cultured by the SFEB method. The culture conditions were the same as those for the SFEB method described in 1.1. above except that Sox1/GFP-mES cells were used as the ES cells.
# Next, to further improve the efficiency of differentiation into nervous system cells by the SFEB method, the present inventors attempted to determine whether or not the efficiency of differentiation into nervous system cells was improved by inhibiting Nodal, Wnt, and BMP, which are promoters of differentiation into mesodermal cells.
# Next, we tested effects of Nodal and Wnt by adding Nodal protein (manufactured by R&D) and Wnt3a protein (manufactured by R&D) to SFEB culture.
# ES cells [5] = assay: SFEB culture then adhesion culture with Wnt3a, dorsal/ventral telencephalon markers; assay type: cell-based, mouse
# Method: Mouse ES cells (EB5 cells) were subjected to serum-free floating culture by the SFEB method in the same manner as Example 1 for 5 days, after which they were dispersed by trypsin/EDTA treatment, seeded to a cell culture slide coated with poly-D lysine/laminin, and cultured in a differentiation medium (as described above) for 2 days, and then in a GMEM+N2 medium (composition: GMEM+1×N-2 Supplement (manufactured by Gibco, a supply of ×100 concentration was used after dilution), 0.1 mM non-essential amino acid, 1 mM sodium pyruvate, 0.1 mM 2-mercaptoethanol) for 3 days. The finally obtained differentiated cells were analyzed by the fluorescent antibody method using anti-Bf1 antibody. For comparison, neural differentiation from ES cells was performed by the SDIA method, and the cells obtained were analyzed by the fluorescent antibody method in the same manner.
# ES cells were cultured by the SFEB method in the same manner as Examples 4 and 6 for 5 days to induce neural differentiation, subsequently dispersed by trypsin/EDTA treatment, seeded to a cell culture slide coated with poly-D lysine/laminin, and cultured. […] In the case of 50 ng/ml Wnt3a, about 75% of the Bf1-positive cells expressed the dorsal marker Pax6, and about 10 percent of them expressed Emx1, a marker of cerebrocortical precursor cells.
# EB5 cells = assay: SFEB culture, differentiation into retinal precursor cells (Rx, rhodopsin immunostaining); assay type: cell-based, mouse
# Method: EB5 cells were subjected to serum-free floating culture by the SFEB method for 5 days, after which cell clamps as is were seeded to a cell culture slide coated with poly-D lysine/laminin/fibronectin, and cultured while in the KSR-containing differentiation medium for the SFEB method for a total of 8 days. Immunostaining was performed using an internally prepared antibody against Rx, a marker specific for retinal precursor cells; an Rx-positive cell population was identified in about 15-30% of the cell clamps (colonies). By treatment with 5% fetal calf serum or 100 ng/ml activin (manufactured by R&D) or treatment with 3-30 nM Shh during 3 to 5 days after the start of cultivation, the Rx positivity rate of colonies increased to 50% (about 2 times). […] Also, these cells were subjected to adhesion culture for a long time (a total of 14 to 18 days); a plurality of cells positive for the visual cell marker Crx or rhodopsin were identified in 1-5% of the colonies.
# [6] = Wnt3a 5 ng/ml or 50 ng/ml from Day 6, total 10 days
# [7] = Nodal protein 5 μg/ml, Wnt3a protein 50 ng/ml, during days 0-5 and days 2-5
molecule,measurement,setting,value
"CC1=C(/C=C/C(C)=C/C=C/C(C)=C/C(=O)O)C(C)(C)CCC1 [RA, retinoic acid]",Bf1+ cells,[1],< 1%
"BMP4: BMP signal promoter, manufactured by R&D",Ki67 in the Math1-positive cells,ES cells [2]; 0.5-1 nM BMP4,negative
same,"expression of Pax6, Zic1 in the Math1-positive cells","ES cells [2]; 0.5-1 nM BMP4, most of these cells",did not express
same,neural differentiation,ES cells [3],completely suppresses neural differentiation
same,cell type produced,ES cells [3]; not flk1+ cells,efficiently produces E-cad^+/Oct3/4^− cells
same,cell type produced,ES cells [4],induces efficient differentiation into flk1^+ lateral plate mesoderm
B1,frequency of Sox1-GFP+ cells,"Sox1/GFP-mES cells; added on Day 0 of SFEB, 5 μg/ml Lefty-A, 1 μg/ml Dkk1, 1.5 μg/ml BMPRIA-Fc receptobody",evaluate the frequency of Sox1-GFP^+ cells
same,experiment-to-experiment variation of GFP expression value,Sox1/GFP-mES cells,stabilized the value of GFP expression
B2,experiment-to-experiment variation of GFP expression value,Sox1/GFP-mES cells,stabilized the value of GFP expression
B3,Bf1-positive cells expressing Emx1,ES cells [5]; 50 ng/ml Wnt3a,about 10%
same,Bf1-positive cells expressing dorsal marker Pax6,ES cells [5]; 50 ng/ml Wnt3a,about 75%
same,number of cells positive for both NRx2.1 and Bf1 (ventral telencephalon markers),ES cells [5]; [6],decreased remarkably
same,number of cells positive for both Pax6 and Bf1 (dorsal telencephalon markers),ES cells [5]; [6],increased
same,frequency of Sox1-GFP+ cells,Sox1/GFP-mES cells; [7],significantly suppress
B4,Rx positivity rate of colonies,"EB5 cells; 5% fetal calf serum or 100 ng/ml activin or 3-30 nM Shh during 3 to 5 days, total 8 days, without: about 15-30%",50%
same,increase of Rx positivity rate of colonies,"EB5 cells; same treatments, versus no treatment",about 2 times
B5,frequency of Sox1-GFP+ cells,Sox1/GFP-mES cells; [7],significantly suppress
